The target of one data set is endogenous 14-3-3ε (UniProt P62258).
In data set [1] the target is T1, GST-NS3 of HCV (strain Con1) (Hepatitis C virus, strain Con1, UniProt Q9WMX2 1027-1657).
T1 construct: domain: NS3; also called HCV NS3; NS3 of Hepatitis C virus
The data set is described as follows: GST pull-down in 293T cells, immunoblot with anti-14-3-3ε.

Data set [2] has as its target T2, FLAG-NS5-MTase (NS5 methyltransferase domain, aa 1-319) (dengue virus serotype 2, strain NGC, UniProt P14340 2492-2810).
T2 construct: domain: NS5 methyltransferase (aa 1-319); also called pEF-BOS-FLAG-NS5-MTase; not shown: FLAG tag
The data set is described as follows: FLAG affinity purification from HEK293T cells and mass spectrometry.

The target in a further data set is T3, endogenous RIG-I (human, UniProt O95786 1-925).
T3 construct: also called retinoic acid-inducible gene-I
T3 sequence: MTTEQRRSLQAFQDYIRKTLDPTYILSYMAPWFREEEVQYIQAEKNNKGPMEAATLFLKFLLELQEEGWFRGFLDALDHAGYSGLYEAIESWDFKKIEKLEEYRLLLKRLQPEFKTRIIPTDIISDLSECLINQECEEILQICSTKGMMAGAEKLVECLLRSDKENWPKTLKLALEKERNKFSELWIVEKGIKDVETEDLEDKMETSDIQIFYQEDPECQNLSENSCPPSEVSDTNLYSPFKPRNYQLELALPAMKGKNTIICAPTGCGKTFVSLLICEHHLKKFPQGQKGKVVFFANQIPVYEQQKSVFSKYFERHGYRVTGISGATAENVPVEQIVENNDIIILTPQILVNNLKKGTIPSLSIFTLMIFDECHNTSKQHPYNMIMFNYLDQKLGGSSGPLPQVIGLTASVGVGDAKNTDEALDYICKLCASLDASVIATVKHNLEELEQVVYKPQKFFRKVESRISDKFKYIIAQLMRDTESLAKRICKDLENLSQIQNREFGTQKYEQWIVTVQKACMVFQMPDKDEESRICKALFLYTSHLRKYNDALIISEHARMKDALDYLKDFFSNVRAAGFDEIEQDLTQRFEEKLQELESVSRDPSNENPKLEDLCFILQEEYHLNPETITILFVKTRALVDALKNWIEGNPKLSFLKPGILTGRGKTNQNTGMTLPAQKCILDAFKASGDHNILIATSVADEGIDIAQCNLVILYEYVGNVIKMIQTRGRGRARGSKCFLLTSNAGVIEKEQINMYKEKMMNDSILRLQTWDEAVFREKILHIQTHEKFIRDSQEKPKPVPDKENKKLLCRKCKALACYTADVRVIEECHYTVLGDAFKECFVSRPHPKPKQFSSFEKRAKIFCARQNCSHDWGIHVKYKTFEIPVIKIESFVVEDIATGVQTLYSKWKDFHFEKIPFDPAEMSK
The data set is described as follows: Co-IP with anti-RIG-I from SeV-infected cells, immunoblot with anti-14-3-3ε.

Another data set has as its target T4, RIG-I-FLAG (UniProt O95786 1-925).
T4 construct: also called purified RIG-I-FLAG
T4 sequence: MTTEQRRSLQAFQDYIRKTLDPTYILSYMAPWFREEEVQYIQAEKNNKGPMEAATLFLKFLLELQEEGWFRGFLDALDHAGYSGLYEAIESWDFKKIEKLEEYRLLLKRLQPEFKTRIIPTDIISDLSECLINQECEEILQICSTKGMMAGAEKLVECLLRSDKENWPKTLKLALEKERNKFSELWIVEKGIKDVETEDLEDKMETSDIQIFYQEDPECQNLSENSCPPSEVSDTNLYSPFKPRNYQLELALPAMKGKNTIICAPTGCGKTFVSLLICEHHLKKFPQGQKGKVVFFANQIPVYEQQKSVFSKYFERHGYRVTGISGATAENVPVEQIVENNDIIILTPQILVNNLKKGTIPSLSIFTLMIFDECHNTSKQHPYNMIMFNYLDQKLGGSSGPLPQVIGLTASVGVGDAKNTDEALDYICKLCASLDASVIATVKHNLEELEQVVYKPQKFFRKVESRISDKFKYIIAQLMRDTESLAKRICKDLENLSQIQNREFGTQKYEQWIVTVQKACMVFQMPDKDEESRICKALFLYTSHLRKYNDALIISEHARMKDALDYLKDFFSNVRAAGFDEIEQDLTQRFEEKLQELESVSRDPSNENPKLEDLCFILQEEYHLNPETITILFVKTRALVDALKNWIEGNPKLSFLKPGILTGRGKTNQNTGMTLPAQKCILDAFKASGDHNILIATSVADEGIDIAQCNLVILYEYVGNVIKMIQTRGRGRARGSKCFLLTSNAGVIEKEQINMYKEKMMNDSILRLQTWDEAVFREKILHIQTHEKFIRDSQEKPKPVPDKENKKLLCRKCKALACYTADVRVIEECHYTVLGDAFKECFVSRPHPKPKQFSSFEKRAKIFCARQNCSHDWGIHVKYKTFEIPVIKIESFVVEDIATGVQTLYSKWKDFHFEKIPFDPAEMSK
The data set is described as follows: in vitro binding assay on anti-FLAG beads, immunoblot.

The results in this text go back to patent US20180185467A1 (Harvard, published 2018).

T1 sequence (Q9WMX2 1027-1657): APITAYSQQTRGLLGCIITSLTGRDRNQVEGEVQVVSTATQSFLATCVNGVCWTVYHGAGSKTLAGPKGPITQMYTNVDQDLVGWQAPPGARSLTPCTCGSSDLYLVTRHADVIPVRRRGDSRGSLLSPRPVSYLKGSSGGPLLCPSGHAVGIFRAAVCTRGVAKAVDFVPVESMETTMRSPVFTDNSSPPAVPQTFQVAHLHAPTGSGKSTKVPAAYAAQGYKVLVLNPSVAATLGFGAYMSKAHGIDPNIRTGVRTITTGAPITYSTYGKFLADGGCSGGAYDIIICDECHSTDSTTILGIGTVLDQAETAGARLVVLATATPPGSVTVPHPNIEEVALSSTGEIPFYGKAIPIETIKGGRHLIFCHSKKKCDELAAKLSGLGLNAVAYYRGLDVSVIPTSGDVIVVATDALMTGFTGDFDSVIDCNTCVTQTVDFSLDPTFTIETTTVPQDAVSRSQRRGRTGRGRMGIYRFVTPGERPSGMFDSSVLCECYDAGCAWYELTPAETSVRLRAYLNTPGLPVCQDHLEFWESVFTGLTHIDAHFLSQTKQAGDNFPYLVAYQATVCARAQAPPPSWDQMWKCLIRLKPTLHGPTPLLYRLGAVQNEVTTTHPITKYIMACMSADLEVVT

Turning to NS3 of DV2 NGC in infected Huh7 cells, in the data set with endogenous 14-3-3ε, the “translocation of RIG-I to the MAVS-containing mitochondrial fraction (fractionation, immunoblot)” value is “RIG-I failed to translocate to the MAVS-containing mitochondrial fraction during DV infection”.

B1: endogenous 14-3-3ε (other)
chain: MDDREDLVYQAKLAEQAERYDEMVESMKKVAGMDVELTVEERNLLSVAYKNVIGARRASWRIISSIEQKEENKGGEDKLKMIREYRQMVETELKLICCDILDVLDKHLIPAANTGESKVFYYKMKGDYHRYLAEFATGNDRKEAAENSLVAYKAASDIAMTELPPTHPIRLGLALNFSVFYYEILNSPDRACRLAKAAFDDAIAELDTLSEESYKDSTLIMQLLRDNLTLWTSDMQGDGEEQNKEALQDVEDENQ
Turning to B1, the binding result in data set [1] was “no binding”; in data set [2], “no binding”; with endogenous RIG-I it was “binds”.

B2: bacterially-purified recombinant human 14-3-3ε protein (NP_006752.1) (other)
chain: MDDREDLVYQAKLAEQAERYDEMVESMKKVAGMDVELTVEERNLLSVAYKNVIGARRASWRIISSIEQKEENKGGEDKLKMIREYRQMVETELKLICCDILDVLDKHLIPAANTGESKVFYYKMKGDYHRYLAEFATGNDRKEAAENSLVAYKAASDIAMTELPPTHPIRLGLALNFSVFYYEILNSPDRACRLAKAAFDDAIAELDTLSEESYKDSTLIMQLLRDNLTLWTSDMQGDGEEQNKEALQDVEDENQ
notes: also called recombinant (r) 14-3-3ε; r14-3-3ε
Consider B2, for which the binding result with RIG-I-FLAG is given as “binds”.
